According to paper PMC2566891 (Nucleic Acids Research, 2008):

Tested on: p53/DNA complex (p21 dsDNA)
Assay: Electrophoretic mobility shift assay
Type: binding
Details: phosphorylated p53 8 µM, p21 DNA 4 µM, 14-3-3γ 0–20 µM; 0.8% agarose gel

B1: 14-3-3: recombinant 14-3-3 protein (γ isoform in EMSA, Figure 5A) (protein)
chain: MDDREDLVYQAKLAEQAERYDEMVESMKKVAGMDVELTVEERNLLSVAYKNVIGARRASWRIISSIEQKEENKGGEDKLKMIREYRQMVETELKLICCDILDVLDKHLIPAANTGESKVFYYKMKGDYHRYLAEFATGNDRKEAAENSLVAYKAASDIAMTELPPTHPIRLGLALNFSVFYYEILNSPDRACRLAKAAFDDAIAELDTLSEESYKDSTLIMQLLRDNLTLWTSDMQGDGEEQNKEALQDVEDENQ
In the case of B1, the p53/DNA complex formation is reported as “enhanced the p53/DNA complex formation”.
